In the Immune Epitope Database (IEDB):

Key:
HLA-A*23:01 = assay: IEDB peptide-MHC binding, purified MHC/competitive/radioactivity; filed as Kd, often an IC50 or EC50 that approximates it; ≥ and ≤ were set here for values at or beyond the usual limits of such assays
HLA-A*24:02 = assay: as above
HLA-B*15:01 [1] = assay: as above
HLA-A*69:01 = assay: IEDB peptide-MHC binding, purified MHC/direct/fluorescence; filed as Kd, often an IC50 or EC50 that approximates it; ≥ and ≤ were set here for values at or beyond the usual limits of such assays; conditions: source organism: Haemophilus influenzae
HLA-B*15:01 [2] = assay: as above; conditions: source organism: Haemophilus influenzae
HLA-B*40:01 = assay: as above; conditions: source organism: Haemophilus influenzae
HLA-B*46:01 = assay: IEDB peptide-MHC binding, purified MHC/competitive/fluorescence; filed as Kd, often an IC50 or EC50 that approximates it; ≥ and ≤ were set here for values at or beyond the usual limits of such assays; conditions: source organism: Haemophilus influenzae R3021
HLA-B*07:02 = assay: IEDB peptide-MHC binding, purified MHC/competitive/radioactivity; filed as Kd, often an IC50 or EC50 that approximates it; ≥ and ≤ were set here for values at or beyond the usual limits of such assays
HLA-B*08:01 [3] = assay: as above; conditions: source organism: Vaccinia virus WR
HLA-B*35:01 = assay: as above
HLA-B*51:01 = assay: as above; conditions: source organism: Dengue virus 4 Philippines/H241/1956
HLA-A*24:03 = assay: IEDB peptide-MHC binding, purified MHC/direct/fluorescence; filed as Kd, often an IC50 or EC50 that approximates it; ≥ and ≤ were set here for values at or beyond the usual limits of such assays
HLA-A*32:01 = assay: IEDB peptide-MHC binding, purified MHC/competitive/radioactivity; filed as Kd, often an IC50 or EC50 that approximates it; ≥ and ≤ were set here for values at or beyond the usual limits of such assays; conditions: source organism: Vaccinia virus WR
HLA-A*30:01 = assay: as above; conditions: source organism: Vaccinia virus WR
HLA-A*02:02 = assay: as above; conditions: source organism: Vaccinia virus WR
HLA-A*02:03 = assay: as above; conditions: source organism: Vaccinia virus WR
HLA-A*02:06 = assay: as above; conditions: source organism: Vaccinia virus WR
HLA-B*08:01 [4] = assay: IEDB peptide-MHC binding, purified MHC/direct/fluorescence; filed as Kd, often an IC50 or EC50 that approximates it; ≥ and ≤ were set here for values at or beyond the usual limits of such assays; conditions: source organism: Giardia lamblia ATCC 50803
HLA-A*02:01 = assay: IEDB peptide-MHC binding, purified MHC/competitive/fluorescence; filed as Kd, often an IC50 or EC50 that approximates it; ≥ and ≤ were set here for values at or beyond the usual limits of such assays; conditions: source organism: Giardia lamblia ATCC 50803
HLA-B*53:01 = assay: IEDB peptide-MHC binding, purified MHC/competitive/radioactivity; filed as Kd, often an IC50 or EC50 that approximates it; ≥ and ≤ were set here for values at or beyond the usual limits of such assays
HLA-A*01:01 = assay: as above
HLA-A*26:01 = assay: as above
HLA-A*29:02 = assay: as above
HLA-A*30:02 = assay: as above
[5] = source organism: Dengue virus 1 Brazil/97-11/1997
[6] = source organism: Vaccinia virus WR
[7] = source organism: Dengue virus 2 Jamaica/1409/1983
[8] = source organism: Dengue virus 4 Philippines/H241/1956
[9] = source organism: SARS coronavirus Tor2
[10] = source organism: Mammarenavirus guanaritoense

Work on AMVLSIVSLF yielded a Kd (HLA-A*23:01; [5]) of 0.0151 µM, a Kd (HLA-A*24:02; [5]) of 0.58 µM and a Kd (HLA-B*15:01 [1]; [5]) of 4.66 nM.
For EQFPNATAF, the Kd (HLA-A*69:01) was 9.85 µM, the Kd (HLA-B*15:01 [2]) was 42.3 nM and the Kd (HLA-B*40:01) was 2970 nM. It also gave a Kd (HLA-B*46:01) of 2370 nM.
With RPVKEKEENL the Kd (HLA-B*07:02; [5]) was 761 nM.
Work on FLYSFFLCI yielded a Kd (HLA-B*08:01 [3]) of 5.81 µM and a Kd (HLA-B*15:01 [1]; [6]) of 1170 nM.
With LAYTIGTTHF the Kd (HLA-A*24:02; [7]) was 0.23 µM and the Kd (HLA-B*35:01; [7]) was 1410 nM.
In the case of GPMVAGGLLL, the Kd (HLA-B*07:02; [8]) is reported as 36.3 nM and the Kd (HLA-B*51:01) is reported as no less than 69.6 µM.
Sequence GYQHKTLAI has a Kd (HLA-A*24:03; source organism: Vibrio vulnificus) of 6.5 nM.
SLCKLNNVF gave a Kd (HLA-A*32:01) of 927 nM and a Kd (HLA-B*15:01 [1]; [6]) of 16 nM.
For GYCLTRWML, the Kd (HLA-A*24:03; source organism: Mammarenavirus lassaense) was 39.5 nM.
Work on SPAAAQKATL yielded a Kd (HLA-B*07:02; [8]) of 3.95 nM.
KAFKKFPSG was tested, and the Kd (HLA-A*30:01) was 247 nM and the Kd (HLA-B*15:01 [1]; [6]) was 2990 nM.
Sequence SVIFYFISI has a Kd (HLA-A*02:02) of 155 nM, a Kd (HLA-A*02:03) of 75 nM and a Kd (HLA-A*02:06) of 0.169 nM. It also gave a Kd (HLA-B*15:01 [1]; [6]) of 335 nM.
In the case of NPNMTDKTPV, the Kd (HLA-B*07:02; [8]) is reported as 118 nM.
QLNQLSKSEF gave a Kd (HLA-B*15:01 [1]; [5]) of 73.1 nM.
KAAKRISHG showed a Kd (HLA-B*15:01 [1]; [6]) of 7690 nM.
With IANQAAVLM the Kd (HLA-B*35:01; [8]) was 75.1 nM.
EMKLRQKQL gave a Kd (HLA-B*08:01 [4]) of 38 nM and a Kd (HLA-A*02:01) of no less than 20 µM.
With IAMTDTTPF the Kd (HLA-B*15:01 [1]; [5]) was 4.25 nM, the Kd (HLA-B*35:01; [5]) was 1.18 nM and the Kd (HLA-B*53:01; [5]) was 172 nM.
Work on NYLRKRVMF yielded a Kd (HLA-A*01:01; [9]) of no less than 78100 nM, a Kd (HLA-A*23:01; [9]) of 11.2 µM and a Kd (HLA-A*24:02; [9]) of 18 µM. The Kd (HLA-A*26:01; [9]) was no less than 60200 nM, the Kd (HLA-A*29:02; [9]) was 3.27 µM and the Kd (HLA-A*30:02; [9]) was 9.15 µM.
For FTIMAAILAY, the Kd (HLA-A*01:01; [7]) was 973 nM, the Kd (HLA-A*26:01; [7]) was 55 nM and the Kd (HLA-A*30:02; [7]) was 2.17 µM. It also gave a Kd (HLA-B*15:01 [1]; [7]) of 2.18 nM and a Kd (HLA-B*53:01; [7]) of 3450 nM.
In the case of EDAQPGLLSY, the Kd (HLA-A*01:01; [10]) is reported as no less than 70400 nM, the Kd (HLA-A*23:01; [10]) is reported as no less than 70 µM and the Kd (HLA-A*24:02; [10]) is reported as no less than 70.3 µM. The Kd (HLA-A*26:01; [10]) was no less than 25800 nM, the Kd (HLA-A*29:02; [10]) was 8.21 µM and the Kd (HLA-A*30:02; [10]) was 17.6 µM.
LVSLLGSAL gave a Kd (HLA-B*07:02; [8]) of 44.3 nM.
For FSAVGNICY, the Kd (HLA-A*01:01; [9]) was 0.34 nM, the Kd (HLA-A*23:01; [9]) was no less than 77.8 µM and the Kd (HLA-A*24:02; [9]) was no less than 51.6 µM. For the same sequence, the Kd (HLA-A*26:01; [9]) was 409 nM, the Kd (HLA-A*29:02; [9]) was 0.00797 µM and the Kd (HLA-A*30:02; [9]) was 0.0285 µM.
LLFVCISYY showed a Kd (HLA-B*15:01 [1]; [6]) of no less than 78100 nM.
